# Laboratory results reported in US20050153923A1, “Targeted drug delivery using EphA2 or EphA4 binding moieties” (priority 2003, published 2005).
# “Also recorded” adds a separate entry of the source.
# What was measured:
# EphA2-Fc [1] = target: T1, EphA2-Fc (Homo sapiens, UniProt P29317); test: Competitive ELISA: inhibition of labeled EA2 binding to EphA2-Fc; details: unlabeled antibody, increasing concentrations; FIG. 1
# T1 construct: consisted of the extracellular domain of human EphA2 linked to human immunoglobulin
# T1 sequence (P29317 24-537 limits assumed): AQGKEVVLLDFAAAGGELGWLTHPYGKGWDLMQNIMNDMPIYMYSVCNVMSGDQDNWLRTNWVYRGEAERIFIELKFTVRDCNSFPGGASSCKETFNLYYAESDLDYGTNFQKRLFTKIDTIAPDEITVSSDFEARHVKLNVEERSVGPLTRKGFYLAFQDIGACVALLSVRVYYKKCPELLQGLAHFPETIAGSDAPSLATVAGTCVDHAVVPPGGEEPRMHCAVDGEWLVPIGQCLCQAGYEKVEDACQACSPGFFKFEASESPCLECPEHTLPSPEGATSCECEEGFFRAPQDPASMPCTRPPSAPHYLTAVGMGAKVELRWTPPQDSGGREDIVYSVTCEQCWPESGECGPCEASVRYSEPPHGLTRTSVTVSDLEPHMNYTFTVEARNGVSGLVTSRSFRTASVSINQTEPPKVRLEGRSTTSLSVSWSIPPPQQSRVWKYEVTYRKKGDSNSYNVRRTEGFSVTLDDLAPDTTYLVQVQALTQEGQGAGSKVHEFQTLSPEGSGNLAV
# Protocol: The ability of labeled EA2 monoclonal antibody to bind EphA2-Fc was assayed by competitive ELISA in presence of either unlabeled monoclonal antibodies EA2 or Eph099B-208.261. Ratios of unlabeled to labeled antibody used in the assay are indicated on the x-axis.
# Supernatants from bulk culture hybridomas were screened for immunoreactivity against EphA2 (Table 9, column 4) using standard molecular biological techniques (e.g., ELISA immunoassay). Supernatants were further screened for the ability to inhibit an EphA2 monoclonal antibody (EA2; ATCC deposit no. PTA-4380; see co-pending U.S. patent application Ser. No. 10/436,783, entitled “EphA2 Agonistic Monoclonal Antibodies and Methods of Use Thereof” filed May 12, 2003) from binding to EphA2. […] Additionally, many of the other antibodies could inhibit EA2 binding to EphA2 as well (Table 9, column 3).
# EphA2 [2] = test: EphA2 tyrosine phosphorylation in MDA-MB-231 cells (IP/Western blot); assay type: cell-based; details: MDA-MB-231 monolayers; single dose 5 μg/ml, 37° C.
# Sequence of EphA2 (P29317 24-976): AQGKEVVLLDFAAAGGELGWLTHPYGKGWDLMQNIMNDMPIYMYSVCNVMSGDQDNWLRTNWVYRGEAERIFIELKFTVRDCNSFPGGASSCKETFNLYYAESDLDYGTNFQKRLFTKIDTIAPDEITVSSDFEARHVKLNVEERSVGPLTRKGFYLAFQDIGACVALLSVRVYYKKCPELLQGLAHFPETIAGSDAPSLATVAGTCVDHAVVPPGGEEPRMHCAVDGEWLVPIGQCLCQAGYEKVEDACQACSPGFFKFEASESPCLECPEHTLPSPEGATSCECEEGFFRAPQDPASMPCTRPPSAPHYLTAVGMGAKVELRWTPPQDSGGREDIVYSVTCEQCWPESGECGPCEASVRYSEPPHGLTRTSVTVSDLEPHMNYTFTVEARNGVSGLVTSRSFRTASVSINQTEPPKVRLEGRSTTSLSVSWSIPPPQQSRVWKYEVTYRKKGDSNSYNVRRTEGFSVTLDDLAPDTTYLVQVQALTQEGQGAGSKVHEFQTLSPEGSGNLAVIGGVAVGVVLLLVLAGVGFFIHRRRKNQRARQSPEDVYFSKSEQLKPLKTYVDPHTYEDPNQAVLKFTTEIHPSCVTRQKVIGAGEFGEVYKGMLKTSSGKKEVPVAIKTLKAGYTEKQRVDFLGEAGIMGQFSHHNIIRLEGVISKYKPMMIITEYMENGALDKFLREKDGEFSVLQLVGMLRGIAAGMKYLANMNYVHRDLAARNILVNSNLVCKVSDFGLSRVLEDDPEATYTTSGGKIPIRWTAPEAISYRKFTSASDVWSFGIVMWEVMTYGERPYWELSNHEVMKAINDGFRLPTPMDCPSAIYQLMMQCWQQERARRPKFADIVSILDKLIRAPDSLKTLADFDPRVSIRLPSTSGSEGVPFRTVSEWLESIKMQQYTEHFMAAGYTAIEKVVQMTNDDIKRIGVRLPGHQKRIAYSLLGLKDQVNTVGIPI
# Protocol: Monolayers of MDA-MB-231 cells were incubated in the presence of a single dose of 5 μg/ml (A, C) Eph099B-208.261 or (B, D) EA2 for the indicated time at 37° C. Cell lysates were then immunoprecipitated with an EphA2-specific antibody, resolved by SDS-PAGE and subjected to Western blot analysis with a phosphotyrosine-specific antibody (A, B). The membranes were stripped and re-probed with the EphA2-specific antibody used in the immunoprecipitation as a loading control (C, D).
# (§1) Monolayers of MDA-MB-231 cells were incubated in the presence of a single dose of 5 μg/ml Eph099B-233.152 at 37° C. Cell lysates were then immunoprecipitated with D7 (an EphA2-specific antibody), resolved by SDS-PAGE and subjected to Western blot analysis with (A) a phosphotyrosine-specific antibody or (B) an EphA2-specific antibody.
# EphA2 antibodies promoted tyrosine phosphorylation and degradation of EphA2 in MDA-MB-231 cells. Monolayers of cells were incubated in the presence of EphA2 agonistic antibodies or control at 37° C. […]
# (§2) Western blot analyses and immunoprecipitations were performed as described previously (Zantek et al., 1999, Cell Growth Diff. 10: 629-38, which is incorporated by reference in its entirety). […] Antibody binding was detected by enhanced chemiluminescence (Pierce, Rockford, Ill.) and autoradiography (Kodak X-OMAT; Rochester, N.Y.).
# EphA2 [3] = test: EphA2 degradation / protein level in MDA-MB-231 cells (Western blot); assay type: cell-based; details: MDA-MB-231 monolayers; single dose 5 μg/ml, 37° C.
# Protocol: Monolayers of MDA-MB-231 cells were incubated in the presence of a single dose of 5 μg/ml (A, C) Eph099B-208.261 or (B, D) EA2 for the indicated time at 37° C. Cell lysates were then resolved by SDS-PAGE and subjected to Western blot analysis with an EphA2-specific antibody (A, B).
# as §1
# Monolayers of MDA-MB-231 cells were incubated in the presence of EphA2 agonistic antibodies at 37° C. Cell lysates were then resolved by SDS-PAGE and subjected to Western blot analysis with an EphA2-specific antibody (D7). […] Decreased EphA2 expression is due, in part, to deceased mRNA expression levels in response to EphA2 protein degradation caused by agonistic antibody binding (data not shown).
# as §2
# EphA2-Fc [4] = target: T1, EphA2-Fc; test: BIACORE surface plasmon resonance Koff measurement on immobilized EphA2-Fc; assay type: binding; details: FIG. 15
# Excerpt: FIG. 15: Kinetic analysis of EphA2 monoclonal antibodies. BIACORE™ (surface plasmon resonance-based) assays were used to assay the kinetics of EphA2 monoclonal antibody binding to immobilized EphA2-Fc.
# The surface plasmon resonance-based BIACORE™ assay was used to measure the Koff rates of the monoclonal antibodies of the invention. IgG present in the hybridoma supernatant was used for measurement. Antibodies with Koff rates of approximately less than 3×10^−3 s^−1 have slow Koff rates. Antibodies with Koff rates of approximately 8×10^−4 s^−1 or less have very slow Koff rates. Antibodies with Koff rates of approximately 9×10^−5 s^−1 or less have ultra slow Koff rates.
# EphA2-Fc was immobilize to a surface on a CM5 sensorchip using a standard amine (70 μl of a 1:1 mix of NHS/EDC) coupling chemistry. Briefly, a 400 nM solution of EphA2-Fc in 10 mM NaOAc, pH4, was then injected over the activated surface to a density of 1000-1100 RU's. Unused reactive esters were subsequently “capped” with a 70 μl injection of 1M Et-NH2. Similarly, an activated and “capped” control surface was prepared on the same sensor chip without protein to serve as a reference surface.
# A 250 μl injection of each of the EphA2 hybridoma supernatants was made over both the EphA2-Fc and control surfaces, and the binding responses were recorded. These supernatants were used undiluted. […]
# MDA-MB-231 tumor cells = test: Inhibition of colony formation in soft agar; assay type: cell-based; details: single dose 5 μg/ml purified antibody, FIG. 5
# Protocol: A single dose of 5 μg/ml of Eph099B-208.261 (black bar), EA2 (white bar) purified EphA2 antibodies or a negative control antibody, 1A7 (gray bar) were incubated with malignant MDA-MB-231 tumor cells for the indicated time at 37° C. in soft agar. Results are reported as colonies per high-powered field (HPF).
# Briefly, cells were suspended in soft agar for 7 days at 37° C. in the presence of purified antibody or control solution (PBS). Antibodies were administered at the time of suspension in both bottom and top agar solutions. Colony formation was scored microscopically using an Olympus CK-3 inverted phase-contrast microscope outfitted with a 40× objective. Clusters containing at least three cells were scored as a positive.
# cancer cells = test: Elimination of cancer cell colonies already formed in soft agar (antibody added on third day); assay type: cell-based; details: data not shown
# Excerpt: Assay methods were similar to those described above except that antibodies were not added to the cancer cells until the third day of growth in soft agar.
# A549 lung cancer cells = test: Tumor growth, A549 cells implanted subcutaneously into athymic mice; assay type: in vivo; details: 6 mg/kg i.p. twice a week for 3 weeks; FIG. 7C
# Protocol: Total tumor volume was determined after sacrifice.
# EphA2-Fc [5] = target: T2, EphA2-Fc (human, UniProt P29317 24-537); test: competitive ELISA on EphA2-Fc, competitor labeled EA2
# T2 construct: extracellular domain; also called fusion protein EphA2-Fc; not shown: human IgG1 constant region
# T2 sequence (P29317 24-537): as the sequence (P29317 24-537 limits assumed) above
# [6] = test system: MDA-MB-231 breast cancer cells; test: Tumor growth and survival, MDA-MB-231 cells implanted subcutaneously into athymic mice; details: 6 mg/kg i.p. twice a week for 3 weeks vs PBS or 1A7; FIG. 7B, D
# Protocol: MDA-MB-231 cells were implanted subcutaneously into athymic mice. […] Tumor growth was assessed and expressed as a ratio of the tumor volume divided by initial tumor volume (100 mm^3).
# (D) MDA-MB-231 breast cancer cells were implanted subcutaneously into athymic mice. […] Total tumor volume was determined after sacrifice.
# Briefly, 5×10^6 MDA-MB-231 breast cancer cells were implanted subcutaneously into athymic mice. […] Tumor growth was assessed and expressed as a ratio of the tumor volume divided by initial tumor volume (100 mm^3).
# 5×10^6 MDA-MB-231 breast cancer cells were implanted orthotopically or subcutaneously and 5×10^6 A549 lung cancer cells were implanted subcutaneously into athymic mice. […] Tumor growth was assessed and expressed either as a ratio of the tumor volume divided by initial tumor volume (100 mm^3) or as total tumor volume.
molecule,measurement,setting,value
"Eph099B-208.261 (antibody, V domains shown, Mouse (SJL) hybridoma monoclonal antibody, ATCC PTA-4573) VH: QVQLQQPGAELVKPGASVKLSCKASGYTFTSYWMHWVKQRPGQGLEWIGMIHPNSGSTNYNEKFKSKATLTVDKSSSTAYMRLSSLTSEDSAVYYCARGGNMVGGGYWGQGTTLTVSS VL: QIVLTQSPALMSASPGEKVTMTCSASSSVSYMYWYQQKPRSSPKPWIYLTTNLASGVPARFSGSGSGTSYSLTISSMEAEDAATYYCQQWSSNPFTFGSGTKLEIR",Competition with labeled EA2 for binding to EphA2-Fc,EphA2-Fc [1],could decrease the amount of labeled EA2 binding to EphA2-Fc; also recorded: can compete with EA2 for binding to EphA2
same,EphA2 tyrosine phosphorylation,EphA2 [2],increased EphA2 phosphorylation; also recorded: promote EphA2 tyrosine phosphorylation in MDA-MB-231 cells
same,EphA2 protein level (degradation),EphA2 [3],decreased EphA2 protein level; also recorded: promote EphA2 degradation in MDA-MB-231 cells
same,Koff rate compared with EA2,EphA2-Fc [4],slower Koff rates than EA2
same,Colony growth / formation in soft agar,MDA-MB-231 tumor cells,inhibited colony growth in soft agar; also recorded: inhibit malignant tumor cell growth in soft agar
same,Effect on cancer cell colonies already formed in soft agar,cancer cells,can kill cancer cells already growing in colonies in soft agar while other antibodies can slow or reduce cancer cell colony growth in soft agar
same,"Tumor growth, A549 implanted subcutaneously",A549 lung cancer cells,inhibited
same,binding result,EphA2-Fc [5],binds
same,"Tumor growth, MDA-MB-231 implanted subcutaneously",[6],inhibited; also recorded: inhibit tumor cell growth in vivo
